This note sets out measurements from patent US5786168.

The target in experiment [1] is human antigen non-specific glycosylation inhibiting factor (GIF), hybridoma-derived (human). Description: ELISA of the flow-through fraction from 110BH3-Sepharose.
The target of experiment [2] is PLA2-binding GIF from anti-CD3-treated AC5 cells (human). Put plainly: ELISA of the acid eluate fraction from 110BH3-Sepharose.
The target of experiment [3] is recombinant human GIF secreted by COS-1 cells co-transfected with SRα-hcGIF and SRα-hfurin (human). Put plainly: fractionation of concentrated COS-1 supernatant on 388F1-Sepharose; GIF bioassay.
Experiment [4] has as its target human antigen non-specific glycosylation inhibiting factor (GIF), hybridoma-derived (human). Description: ELISA, culture supernatant on wells coated with affinity-purified GIF from CL3. For orientation: In an ELISA, binding on a coated surface is turned into a signal by an enzyme label.
Experiment [5] deals with bovine serum albumin (BSA) (bovine) (UniProt P02769). Description: ELISA, nonspecific binding of Ig in the same supernatant to BSA-coated wells.

On to “monoclonal anti-human GIF antibody 388F1 (ATCC HB 10472)”, for which the figures for the ELISA signal (absorption at 490 nm) in experiment [1] and in experiment [2] were 0.36 absorbance and 0.86 absorbance, respectively. The GIF activity recovered in the acid eluate fraction in experiment [3] is over 75%. Also, the ELISA signal (optical density at 410 mµ) in experiment [4] is 0.892 OD. The same substance had an ELISA control (optical density at 410 mµ) in experiment [5] of 0.1 OD.
